Data: the DeepSol protein solubility set

Test: soluble on expression in E. coli; label from the status in PepcDB or PDB records
In the case of “MGSDKIHHHHHHMKYSLGPVLYYWPKETLEDFYQQAANCSADTIYLGEAVCSKRRATKVGDWIEMAKTLAASGKQIVLSTLALVQASSELGELKRYVDNGEFLIEASDLGVVNLCAERKLPFVAGHALNCYNAVTLRLLRKQGMVRWCMPVELSRDWLANLLTQCEELGIRNQFEVEVLSYGHLPLAYSARCFTARSEDRPKDECETCCIKYPTGRSMLSQENQQVFVLNGIQTMSGYVYNLGNELTSMHGLVDMVRLSPMGNETFAMLEAFRANENGAAPLDLTSNSDCNGYWKRLPGLVLHA”, the “soluble on expression in E. coli” value is reported as “not soluble”. In the case of “MQQEHRECIEQCYECAAACDICASSCLREDNVEMMKHCIQLDMQCAAICRLAAQFMALESEYSQKLCRLCADICKACAEECARHDHDHCQNCARACSQCADACLKMAALEHHHHHH”, the “soluble on expression in E. coli” value is reported as “not soluble”. For “MDIPQDSYDLVVVGGGTSGVFAAISAARRGLRVALVEASGMLGGTLTQVTLGGICGAWTGTAHTQVVHGLFDEFVHAMRKAQACDGLYSYGHVTALPYEPVKVRYLLDQLLPPNVTTFFHSRLFAVDMEGERIARVHLAGVEGPFSLAARAYVDATGNASLAGLCATPLRRGENGTVQAASSMFRVIGADVDPRVRDVRTEIRLAIEKHNASGQAEAFKRSAVAVYVHPDQRLLHFNATRVYFESTADDALAAALDMSRVETEARKEAFRLVELLKREVDGFANIEIVDLGSSVGVRDSRNIVNDHPLTEAMVRDGDKPANSVAYSAWPIEFHGSNTQTHWEPLEGDRYYGIPYESCLPQGIQNALVIGRAISSTPLAQASCRVTAPCIQMGESAGIAAHELVASSSRTAFSELASMKFILEHHHHHH”, the “soluble on expression in E. coli” value was “not soluble”. In the case of “EKMTRDEIEYMLTNSEETLDADEIEMLQGVFSLDELMAREVMVPRTDAFMVDINDDSSDIIQTILNERFSRIPVYDDDKDKIIGIIHTKNLLNAGFKEGFDHINLRRILQEPLFVPETIVVNDLLTALKNTQNQMAILLDEYGGVAGLVTLEDLLEEIVGEIDDETDKTAISVREIADNTYIVLGTM”, the “soluble on expression in E. coli” value is reported as “not soluble”. With “MKRVGKQTWVFDDGVYIQAAAAAVGPLEADGPLGSYFDVCHRDLYCGEATWELAERRLMREAVDCCLQKAGVSAEEVDLLLAGDLLNQNATSNYVARELPIPFLCLFGACSTSMQTLAAAAAFVAGGLADRALAATSSHNATAERQFRYPTELGVQKPKTATFTVTGAGAALVGRAPGRWRVRAATIGKVVDAGLKNPLDMGAAMAPAAADTIEQHFRDLGVSPGDYDLIVTGDLSRVGSVIVRELLAESGYDVTDVYNDCGLMIYRPDQKVFAGGSGCACSAVVTYGYLLQELARGTFRRLFVVATGALLSQTMVQQKQSIPAIAHGVVIEAAGQEPDLPP” the “soluble on expression in E. coli” value was “not soluble”. In the case of “MGHHHHHHSHMGKGTFVYRTTITSPHEEVWAFFSSPTNLQTLTKIPKVVLDSTSETTQGSEIEMKLFVLGIPFQWKAYIEAYNPPFSFTDVAIKMPFPIVYWRHTHRFTTEGERTVMIDEIQYEIKMANKLVIFFLRRMFRARESALHRYFQS”, the “soluble on expression in E. coli” value is reported as “soluble”. In the case of “MTHVTLRSEFETLIDPYAPVAQVGTGFDFTEGPIWHPIDHYLLFSDMPGDVRRRWDARRGMAEVKRPSNKCNGMTYDAELNLIVCEHATSSLIRERPDGRREVLASHFGGQELNSPNDVCVHSSGAIYFSDPWYGRMPVYGVERPRQLGFQGVYRVMPGGEPKLVVDRNLFDQPNGLCFSPDERLLYVNDTVQALIRVFDVNADGTLSNARVFASSIKSELEPGLPDGMKCDQHGNVWVTAPGGVWVYSPRGELLGKVRVPELVANLAWGGPDFRTLYLTSTHSVYAIPTRVGPRHEPYMSGRRGGAGASAGPAAAAPILTDGEMRLDPQRCAMIIQDLQNDVIMDGGAFDGSGAPAHAKQQHVVENVRRLAEAARARGVAIIHVWFVVEPGAPGVTLNAPLFEGLVDSKAMVRGSWGAAPVSGLEPRPGDFVVEKMRMSAWEGTRLETILKATGRDMIINTGAWTNMSVEHTARTGADKGYFMIVPEDCCSTMNADWHSASINFAMQNVAIVTRADAVIRALGLEHHHHHH”, the “soluble on expression in E. coli” value is reported as “not soluble”. For “MGSDKIHHHHHHMTGEKVHLTGAKETLLMTLYGKALESRLPHSLLGDHFADEAVRKIDYDFSRLKVDENLGIGLAIRAKTLDVRVEDFLARNPGAIVLHLGCGLDTRVFRVDPPPGVDWFDADYPQVIELRRKLYPPRDHYHLIASSVTEPGWLAEVPRNRPAMVVAEGLTPYLPADEGLRLVSRLVSHLAGGELMFDAYSRFGLTLLRLSPTIKATGAEVHWAIDDPHELELAVPKLRFVEDISAYMPEHAARMGWSAKLFVRLWKHIPALRKVGRLLRYRF”, the “soluble on expression in E. coli” value was “not soluble”. In the case of “MGSDKIHHHHHHMFRYDVISNKKNVNPHILALHHHNEKTWISSSSGGVFASLTDYALRQAGVIFGAIYDDNFVVVHRRAETQEDTLKFRGSKYVQSNLTGIYQQVKFYLQEQRFVLFSGTPCQVEGLKGYLQRSYDNLLTVDILCHGVPSPRVFHDYLNFIRQNSDFHFTGIFMKDKTFGWGYQNSRLFFGKNASQFNTVLSRLWNDIFYSHLTTRPSCHACRFTNYLRPGDITIGDFWGIEKHHPQFTDSRGISLIMLNNTKAEIVWNHIKDDFNYLESNIKECIQPNLKYPVPEPVNKATFWQDYASMPFFQIMNKYYRITHQDLLKNRFYMILLTLKKRFT”, the “soluble on expression in E. coli” value is reported as “not soluble”. With “MGSDKIHHHHHHMSSCEIFPLISKLSAEGKRFAIVSIYKGNRLERTIVSDGRVLLGSLDRNIIEIALEALEKGKVIQKDLEDGKLVIEPIEPRPAIIVVGSGIIARFLAKLAIDMGYYVAVVGSGDVKEEDFSGVYAISNDLNLLEQMVSEDSIVIVANEGGKPYDIDALYIAMKKRARFVGLLASQKRAALMISLLVKRDIPLEEIKRRLHSPLGLDIGSKTAEEIALSILSEVVLDLRGGTGKRLQEVKNPYLLLDDALAGKIEDKCMFVPKSLSQQ” the “soluble on expression in E. coli” value was “not soluble”. With “MGSDKIHHHHHHMKLRCAIVDDEPLALSLLESYVNKTPFLELAGKYSSAVQAMKELPGNQIDLLFLDIQMPELNGLEFSKMVAPRTRIVFTTAFGQYAIDGYRVNALDYLLKPISYVDFLQAANKALQWFELVQKPEEVDSIFVKSDYKLVQVELKKILYIEGLKDYIKIYTEDAPKPILSLMSMKSMEELLPPARFMRVHRSFIVQKDKIRIIDRGRIVFDKTYIPVSDSYKQTFQTFLDERS” the “soluble on expression in E. coli” value was “not soluble”. In the case of “MIQERKNLVTFGDQLVEAGRRLGRLCVGIDPHPSLLKQWGCDDGIAGLQRFTEICVEAFSGNVALVKPQVAFYEAWGAAGYQILESAISELRQAGTLVLSDAKRGDIGSTMAGYAQAWLAEESSLSSDAVTVSPFLGYGSLSPVLEVAASTNKGVFVLAATSNPEARSLQDRIGEDGLSISQLMVDSVALSNREHKENNHYGNVGVVIGATLAHPPQLERLNGPILLPGVGAQGATPADVARLTQGVQELAFANVSRGILKAGPSASALSTAISKFVEEFTN”, the “soluble on expression in E. coli” value is reported as “not soluble”. With “MNMSSEMLPASIESPNVEEKLGTSDGEEERQEPRVDAGAEPISKRQLKKLMKQKQWEEQREQRKEKRKEKRKRKKLERRQLESNSDGNDRKRVRRDVARSSLRLVIDCSFDDLMVLKDIKKLHKQIQRCYAENRRASHPVQFYLTSHGGQLKKNMDENDQGWVNWKDIHIKSEHYSELIKKEDLVYLTSDSPNVLKDLDESKAYVIGGLVDHSHHKGLTFKQATSYGIEHAQLPLADFVKMNSRKVLAVNHVFEIILEFLETRDWQEAFFTILPQRKGAVPAHKACESSPQDHQSLPEGWDSASEGESCRDNPDSPQKDEQGQQSSPVLQ” the “soluble on expression in E. coli” value was “soluble”. With “MVSGYTQSEIDSIAGWLRAGDSASKAAAKLSTMRGRAVSRNAIIGIVHRNAKLAAIGFGRAKSSPASEGSSTYTPEEIKLVADCLKAKRNYVQIAQRLALKSGRIISRFGVKSLIRRTPELNEIGFRGKKGRPSDKKKAAPGQLPGRLFIAATADIDRDPSAFDYLTRPAVRALASQPHFAAMRFVDCLPARCRAPLSYDLEERPGPDMLCCGHLAMPSRSYCAYHEIRLTARKAEFIAEAALEHHHHHH” the “soluble on expression in E. coli” value was “soluble”. For “MGSDKIHHHHHHMRYESSKKILVIEDDAVTRNLFLEVLEAQGFDTIGAEDGVAGIQKAQEHLPDLVICDIQMPDMDGYTVLARLRQDPHTAIIPFIFLTGSNTQTDVRKGMESGADDYLTKPSSIEDFLRAIAVRLEKQAFLRYWYATNSHQTAQSPPSSFNSESIFPSVPQLQAVFDFIEANYRQGITLSDVALAVGYSPAYLTNRVAKQTGETVNAWIVKRRMAAARPLLRDTNQTIDQIAIALGYQNTCHFSRQFRQHHGLSPKTWRKQQQLLQSSKNAKLQLIKNHDALEKLVPLGC”, the “soluble on expression in E. coli” value was “not soluble”. With “MLSKPMELLRPSKGMINVHPIQRGGILTEEARKVLLEWGDGYSMCDICLEGRVDLLDKPPVKRFKEEVAEFLGMDEVRFTAGARHAKFVAMSGFKGALVVDSLAHYTTYIAAELNGLRVYEVPNTGYPEFRIEAESYTDVFEKVKEETGDYPAVALLTHADYKYGNLADAKKVAEICRDYGIPLILNTAYTSGIMEVSGRETGCDFIVASGHKSWAATAPIGILATTFEFAERVFRVSEVRGNWSGRAFTKKEVALFGCSPVYGLPLVTLMASFPVVKERVKRWKEEVEKARWFVEEMEKIEGVMLLGERPKNHTLMNFETPSFNLIAKKHRRKGYFLYHELKERGIFGVQPGMTRNVKLNVYGLSWEEVERVAEAFKEIAEKYGLEVED” the “soluble on expression in E. coli” value was “not soluble”. With “LFLPNTRAYRRYNRSVWAVRGSTRPQWQPPPKFQHAKCMSMRLAHRLQILLDDECHRRITAVARERGVPVATVVREAIDRGLVSPAGRRKSAGRRLLDAADMSVPEPRELKQELEALRARRG” the “soluble on expression in E. coli” value was “not soluble”. With “KRKTKEQLAILKSFFLQCQWARREDYQKLEQITGLPRPEIIQWFGDTRYALKHGQLKWFRDNA” the “soluble on expression in E. coli” value was “soluble”. With “MGSSLSNLNDGTNGLAMGPGLGDIPESCVACVFMYLTPPEICNLAGLNRSFRGAASSDSVWEKKLPENYQDLLDLLPPERYHSLSKKDIFAVLSRPIPFDDDNKEVWIDRVTGRVCMAISARGMSITGIEDRRYWNWIPTEESRFHVVAYLQQIWWFEVDGTVRFHLPPGVYSLSFRIHLGRFTKRLGRRVCHFELTHGWDLKPVRFSLSTSDGQEASCEYYLDDVERNEALGKHKRGYWIEYRVGEFIVNGSEPSTEIQWSMKQIDCTHSKGGLCVDSVFINPIGDVKEHKRKAVLKEA” the “soluble on expression in E. coli” value was “soluble”. For “APLFIKNVNGIKVAILSYAYGFNGLESNLTEKEIANHLSNLDEKRMKVEIERAEKEADVTVIMPQMGVEYRLEPTDEQVKLYHKMIDWGADIIFGGHPHVVEPSEVVKKDGQQKLIIYSMGNFISNQRIETVDGVDNAAWTERSVLMDVTLEKKNCQTTIKTAQAHPTWVNRTPKGTISPEGYPLYTYQTYILEDFIKGRKYRNKLDEETKERIDTAYKEMNAHVNL”, the “soluble on expression in E. coli” value was “not soluble”. In the case of “MGSDKIHHHHHHMPYTTYRQQAVDEQTLAQTELNQYIADQAQVIAPEEYTSVEINFYYHEIYISSQLIAQIAYDHNEFVTQRWLVLVNDKEEFRANTWAKCYRYICTHHKDGSLPVQERETPAATTGNEIMVQIADECENLGLELLEDGIYRGDQKLGKAGQTNGNWWFIRTDDATQQQRFCNSASDAMWLVSRAELPEYTDTLNEYLQYRPLEQMPSVELKHLLDSAELTAA”, the “soluble on expression in E. coli” value is reported as “not soluble”.
